{"source": "patent US20200157226A1", "about": "(DRAGONFLY THERAPEUTICS, published 2020)", "binders": {"B1": {"name": "anti-5T4 monoclonal antibody 5T4A (antibody, V domains shown)", "VH": "EVQLVESGGGLVQPGGSLRLSCAASGFTFSNYWMNWVRQAPGKGLEWVGEIRLKSDKYATYYAESVKGRFTISRDDSKNSLYLQMNNLKTEDTGVYYCARRRGYYGSAYGMDYWGQGTLVTVSS", "VL": "DIQMTQSPSSLSASVGDRVTITCKASQDINSYLSWFQQKPGKAPKILIYRANRLVDGVPSRFSGSGSGKDFTFTISSLQPEDIATYYCLQYDFLPLTFGGGTKVEIK", "notes": "detected with anti-human IgG secondary antibody; also called 5T4 monoclonal antibody (mAb)"}, "B2": {"name": "anti-5T4 monoclonal antibody 5T4R (antibody, V domains shown)", "VH": "EVHLLESGGGLVHPGGSLRLSCAASGFTFRSDAMHWVRQAPGKGLEWVSGVSGSGGSPYYADSVKGRFTISRDDSKTTLYLQMNSLRAEDTAVYYCATGGSIAGSYYYYPMDVWGQGTTVTVSS", "VL": "DIQMTQSPSSLSASVGDRVTITCQASQDISNYLNWYQQKPGKAPKLLIYAASTLQIGVPSRFSGSGSGTDFTFTISSLQPEDFATYYCQQANSFPLTFGGGTKVEIK", "notes": "detected with anti-human IgG secondary antibody; also called parental anti-5T4R monoclonal antibody; 5T4 monoclonal antibody (mAb)"}}, "key": {"[1]": {"molecular_target": "T1, 5T4 expressed on human cancer cell lines (human, UniProt Q13641 32-420)", "T1 construct": "the assays used endogenous 5T4 on BxPC3, H146, H1975, HCT116, MCF7 and N87 cells; also called tumor-associated 5T4 antigen; human trophoblast glycoprotein 5T4", "T1 sequence": "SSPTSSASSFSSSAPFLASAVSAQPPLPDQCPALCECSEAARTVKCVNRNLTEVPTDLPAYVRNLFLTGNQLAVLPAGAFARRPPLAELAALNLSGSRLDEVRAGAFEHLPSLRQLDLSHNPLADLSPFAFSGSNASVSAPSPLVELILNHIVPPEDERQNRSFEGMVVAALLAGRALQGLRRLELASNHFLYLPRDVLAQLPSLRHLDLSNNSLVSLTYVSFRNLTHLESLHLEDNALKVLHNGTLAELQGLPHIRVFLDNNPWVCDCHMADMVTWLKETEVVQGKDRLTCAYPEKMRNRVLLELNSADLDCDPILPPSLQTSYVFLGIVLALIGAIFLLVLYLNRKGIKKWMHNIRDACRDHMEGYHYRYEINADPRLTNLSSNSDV", "experiment": "flow cytometry on BxPC3 cells", "experimental": "(§1) Human cancer cell lines (BxPC3, H146, H1975, HCT116, MCF7 and N87) expressing the tumor-associated 5T4 antigen were used to assay the binding of 5T4-targeting TriNKETs to the antigen. In separate experiments, the TriNKETs or the parental anti-5T4 monoclonal antibodies were incubated with the each of the cell lines, and the binding of the TriNKETs or anti-5T4 monoclonal antibodies to the cells was detected using fluorophore-conjugated anti-human IgG secondary antibodies. Flow cytometry was used to analyze the binding of the TriNKETs or anti-5T4 monoclonal antibodies to the cells, and fold-over-background (FOB) was calculated by normalizing the mean fluorescence intensity (MFI) to human recombinant IgG1 staining control."}, "[2]": {"molecular_target": "T2, human NKG2D expressed on cells (primary human NK cells); EL4 mouse lymphoma cell lines engineered to express … (human, UniProt P26718 1-216)", "T2 construct": "whole, on cells; also called NKG2D expressed on EL4 cells; NKG2D on primary human NK cells", "T2 sequence (looked up)": "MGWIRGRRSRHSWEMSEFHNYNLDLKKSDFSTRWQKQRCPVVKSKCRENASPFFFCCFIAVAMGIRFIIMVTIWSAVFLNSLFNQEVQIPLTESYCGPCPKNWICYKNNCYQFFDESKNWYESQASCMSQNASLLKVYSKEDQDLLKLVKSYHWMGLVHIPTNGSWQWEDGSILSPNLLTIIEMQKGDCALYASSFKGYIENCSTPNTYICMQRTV", "experiment": "flow cytometry on primary human NK cells", "experimental": "Primary human NK cells and EL4 mouse lymphoma cell lines engineered to express human NKG2D were used to test binding affinity of trispecific binding proteins (TriNKETs) to NKG2D. Each of the TriNKETs tested contains an NKG2D-binding domain, a tumor-associated antigen binding domain (e.g., a 5T4-binding domain), and an Fc domain that binds to CD16 as shown in FIG. 1. TriNKETs were diluted to 20 μg/mL, and then diluted serially. The binding of the TriNKETs or the parental anti-5T4 monoclonal antibodies to NKG2D were detected using fluorophore-conjugated anti-human IgG secondary antibodies. Cells were analyzed by flow cytometry, and fold-over-background (FOB) was calculated by normalizing the mean fluorescence intensity (MFI) to human recombinant IgG1 staining control."}, "[3]": {"molecular_target": "T1, 5T4 expressed on human cancer cell lines", "experiment": "flow cytometry on 5T4-expressing human cancer cell lines", "experimental": "as §1"}}, "data": [{"binder": "B1", "values": [{"measurement": "binding result", "setting": "[1]", "value": "binds"}, {"measurement": "binding result", "setting": "[2]", "value": "no binding"}]}, {"binder": "B2", "values": [{"measurement": "binding result", "setting": "[3]", "value": "binds"}, {"measurement": "binding result", "setting": "[2]", "value": "no binding"}]}]}
